US20210032298
Residue numbers refer to the chain shown, from its start.

T1: Myc-tagged CMTM6 C115S mutant (expressed in HEK293 cells)
T1 chain: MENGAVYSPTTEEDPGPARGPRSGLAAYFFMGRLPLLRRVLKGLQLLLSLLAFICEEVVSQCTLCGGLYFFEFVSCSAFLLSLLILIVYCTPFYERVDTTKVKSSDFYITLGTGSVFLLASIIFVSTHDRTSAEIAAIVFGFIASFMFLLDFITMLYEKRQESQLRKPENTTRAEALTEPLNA

T2: Myc-tagged CMTM6 C90S+C115S double mutant (expressed in HEK293 cells)
T2 chain: T1 chain with C90S

T3: Myc-tagged CMTM6, wild type (expressed in HEK293 cells)
T3 chain: T1 chain with S115C

T4: Myc-tagged CMTM6 C90S mutant (expressed in HEK293 cells)
T4 chain: T1 chain with C90S, S115C

T5: transmembrane protein 192 (TMEM192), Q8IY95
T5 chain: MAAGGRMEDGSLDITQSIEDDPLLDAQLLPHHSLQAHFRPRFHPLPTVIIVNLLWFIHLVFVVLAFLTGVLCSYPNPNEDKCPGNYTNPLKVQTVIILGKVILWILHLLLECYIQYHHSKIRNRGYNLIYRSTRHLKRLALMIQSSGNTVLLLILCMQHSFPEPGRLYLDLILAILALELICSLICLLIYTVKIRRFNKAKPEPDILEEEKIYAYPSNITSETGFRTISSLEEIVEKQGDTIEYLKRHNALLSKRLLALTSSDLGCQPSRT

T6: Niemann-Pick C1 (NPC1; endogenous, in MDA-MB-231 cells), O15118
T6 chain: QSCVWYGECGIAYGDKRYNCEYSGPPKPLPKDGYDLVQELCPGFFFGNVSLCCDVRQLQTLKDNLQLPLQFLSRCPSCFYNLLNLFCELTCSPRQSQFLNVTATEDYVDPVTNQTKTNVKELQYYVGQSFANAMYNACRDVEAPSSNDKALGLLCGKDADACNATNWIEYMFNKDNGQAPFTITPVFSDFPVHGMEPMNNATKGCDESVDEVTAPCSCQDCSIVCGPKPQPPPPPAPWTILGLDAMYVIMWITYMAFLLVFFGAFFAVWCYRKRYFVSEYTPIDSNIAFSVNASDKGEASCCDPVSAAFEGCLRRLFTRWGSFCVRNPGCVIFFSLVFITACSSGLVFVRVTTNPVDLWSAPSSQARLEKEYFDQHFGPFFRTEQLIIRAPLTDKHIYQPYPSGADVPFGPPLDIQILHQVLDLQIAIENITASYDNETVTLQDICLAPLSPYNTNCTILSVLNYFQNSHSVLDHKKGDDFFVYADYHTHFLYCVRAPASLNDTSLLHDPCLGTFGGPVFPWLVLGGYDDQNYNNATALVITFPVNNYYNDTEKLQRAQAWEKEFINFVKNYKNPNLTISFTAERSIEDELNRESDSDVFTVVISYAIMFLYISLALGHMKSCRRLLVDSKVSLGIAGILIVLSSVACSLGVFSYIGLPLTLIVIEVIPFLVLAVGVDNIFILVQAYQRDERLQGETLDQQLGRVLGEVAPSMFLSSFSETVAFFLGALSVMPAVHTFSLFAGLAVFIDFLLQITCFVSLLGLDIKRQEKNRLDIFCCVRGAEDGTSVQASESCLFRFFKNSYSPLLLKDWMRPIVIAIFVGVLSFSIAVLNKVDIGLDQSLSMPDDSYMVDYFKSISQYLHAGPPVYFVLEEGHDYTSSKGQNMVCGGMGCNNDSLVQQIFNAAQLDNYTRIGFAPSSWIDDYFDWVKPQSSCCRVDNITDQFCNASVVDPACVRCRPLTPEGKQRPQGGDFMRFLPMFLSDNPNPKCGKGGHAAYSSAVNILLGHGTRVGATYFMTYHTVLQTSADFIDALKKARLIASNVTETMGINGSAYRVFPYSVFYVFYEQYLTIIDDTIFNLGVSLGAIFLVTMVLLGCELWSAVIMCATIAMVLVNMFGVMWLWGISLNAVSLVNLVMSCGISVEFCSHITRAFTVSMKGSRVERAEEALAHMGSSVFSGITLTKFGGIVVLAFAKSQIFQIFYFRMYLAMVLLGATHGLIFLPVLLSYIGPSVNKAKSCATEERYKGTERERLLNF

B1: FLAG-tagged DHHC3 (over-expressed in HEK293 cells) (protein)
chain: MMLIPTHHFRNIERKPEYLQPEKCVPPPYPGPVGTMWFIRDGCGIACAIVTWFLVLYAEFVVLFVMLIPSRDYVYSIINGIVFNLLAFLALASHCRAMLTDPGAVPKGNATKEFIESLQLKPGQVVYKCPKCCSIKPDRAHHCSVCKRCIRKMDHHCPWVNNCVGENNQKYFVLFTMYIALISLHALIMVGFHFLHCFEEDWTKCSSFSPPTTVILLILLCFEGLLFLIFTSVMFGTQVHSICTDETGIEQLKKEERRWAKKTKWMNMKAVFGHPFSLGWASPFATPDQGKADPYQYVV
B2: DHHC3 (protein acyltransferase; endogenous, in MDA-MB-231 cells) (protein)
chain: B1 chain

What was measured:
[1] = target: T1, Myc-tagged CMTM6 C115S mutant …
[2] = target: T2, Myc-tagged CMTM6 C90S+C115S double …
[3] = target: T3, Myc-tagged CMTM6, wild type (expressed …)
[4] = target: T4, Myc-tagged CMTM6 C90S mutant (expressed …)
[5] = target: T5, transmembrane protein 192 (TMEM192), …
[6] = target: T6, Niemann-Pick C1 (NPC1; endogenous, in …)

| Protein | incorporation of 3[H]-palmitate into immunoprecipitated Myc-CMTM6 (HEK293 over-expression) [1] | incorporation of 3[H]-palmitate into immunoprecipitated Myc-CMTM6 (HEK293 over-expression) [2] | incorporation of 3[H]-palmitate into immunoprecipitated Myc-CMTM6 (HEK293 over-expression) [3] | incorporation of 3[H]-palmitate into immunoprecipitated Myc-CMTM6 (HEK293 over-expression) [4] | palmitoylation of the substrate after DHHC3 ablation [5] | palmitoylation of the substrate after DHHC3 ablation [6] |
| --- | --- | --- | --- | --- | --- | --- |
| B1 | a C115 mutation did not diminish incorporation of 3[H]-palmitate | both mutations together (C90S+C115S) did not diminish palmitoylation (FIG. 23A, lane 6) more than C90S alone | CMTM6 incorporates 3[H]-palmitate when DHHC3 is present (FIG. 23A, lane 3), but not when DHHC3 is absent (FIG. 23A, lane 2) | mutation of C90 (C→S) caused palmitoylation to be diminished by ˜50% |  |  |
| B2 |  |  |  |  | 4/4 putative DHHC3 substrates (ERGIC3, CMTM6, NPC1, transmembrane protein 192 (TMEM192)) lose substantial palmitoylation when DHHC3 is ablated | 4/4 putative DHHC3 substrates (ERGIC3, CMTM6, NPC1, transmembrane protein 192 (TMEM192)) lose substantial palmitoylation when DHHC3 is ablated |
